Measurements taken from publication PMC10397247.

Tests used:
Assay in all cases: two-hybrid library CCmax;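 note: natural log of median RNA to DNA barcode read ratio; higher means stronger binding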
4H2277-AA = target: T1, 4H2277-AA; conditions: mean of both orientations
T1 chain: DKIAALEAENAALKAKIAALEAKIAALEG

4H3655-AA = target: T2, 4H3655-AA; conditions: mean of both orientations
T2 chain: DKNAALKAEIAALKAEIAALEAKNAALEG

4H678-AA = target: T3, 4H678-AA
T3 chain: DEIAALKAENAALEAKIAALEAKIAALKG

4H335-AA = target: T4, 4H335-AA; conditions: mean of both orientations
T4 chain: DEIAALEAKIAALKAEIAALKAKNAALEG

4H2190-AA = target: T5, 4H2190-AA; conditions: mean of both orientations
T5 chain: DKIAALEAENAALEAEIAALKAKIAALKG

4H993-AA = target: T6, 4H993-AA; conditions: mean of both orientations
T6 chain: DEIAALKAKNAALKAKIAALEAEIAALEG

4H3112-AA = target: T7, 4H3112-AA; conditions: mean of both orientations
T7 chain: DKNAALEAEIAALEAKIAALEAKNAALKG

4H454-AA = target: T8, 4H454-AA; conditions: mean of both orientations
T8 chain: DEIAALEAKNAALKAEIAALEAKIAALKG

4H2354-AA = target: T9, 4H2354-AA; conditions: mean of both orientations
T9 chain: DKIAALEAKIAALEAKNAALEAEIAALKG

Q7-AA = target: T10, Q7-AA; conditions: mean of both orientations
T10 chain: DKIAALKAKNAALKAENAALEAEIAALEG

4H1352-AA = target: T11, 4H1352-AA
T11 chain: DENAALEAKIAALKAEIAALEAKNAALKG

4H2883-AA = target: T12, 4H2883-AA; conditions: mean of both orientations
T12 chain: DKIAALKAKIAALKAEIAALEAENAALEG

4H2505-AA = target: T13, 4H2505-AA; conditions: mean of both orientations
T13 chain: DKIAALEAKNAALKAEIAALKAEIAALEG

4H3718-AA = target: T14, 4H3718-AA; conditions: mean of both orientations
T14 chain: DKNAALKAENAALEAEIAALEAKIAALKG

4H1636-AA = target: T15, 4H1636-AA; conditions: mean of both orientations
T15 chain: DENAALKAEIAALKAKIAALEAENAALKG

4H342-AA = target: T16, 4H342-AA; conditions: mean of both orientations
T16 chain: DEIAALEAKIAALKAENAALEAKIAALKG

4H881-AA = target: T17, 4H881-AA; conditions: mean of both orientations
T17 chain: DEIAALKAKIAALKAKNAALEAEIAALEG

4H317-AA = target: T18, 4H317-AA; conditions: mean of both orientations
T18 chain: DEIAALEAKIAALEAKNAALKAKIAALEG

4H48-AA = target: T19, 4H48-AA; conditions: mean of both orientations
T19 chain: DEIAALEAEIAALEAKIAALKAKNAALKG

4H794-AA = target: T20, 4H794-AA; conditions: mean of both orientations
T20 chain: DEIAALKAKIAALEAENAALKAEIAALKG

4H605-AA = target: T21, 4H605-AA; conditions: mean of both orientations
T21 chain: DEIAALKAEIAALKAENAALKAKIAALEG

Q3-AA = target: T22, Q3-AA; conditions: mean of both orientations
T22 chain: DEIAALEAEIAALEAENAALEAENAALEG

4H2617-AA = target: T23, 4H2617-AA; conditions: mean of both orientations
T23 chain: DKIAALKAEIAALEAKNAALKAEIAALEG

4H2754-AA = target: T24, 4H2754-AA; conditions: mean of both orientations
T24 chain: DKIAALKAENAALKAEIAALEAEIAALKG

4H2151-AA = target: T25, 4H2151-AA; conditions: mean of both orientations
T25 chain: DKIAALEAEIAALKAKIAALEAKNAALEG

4H2729-AA = target: T26, 4H2729-AA; conditions: mean of both orientations
T26 chain: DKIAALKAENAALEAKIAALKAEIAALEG

4H3844-AA = target: T27, 4H3844-AA
T27 chain: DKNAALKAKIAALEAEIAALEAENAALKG

4H2944-AA = target: T28, 4H2944-AA; conditions: mean of both orientations
T28 chain: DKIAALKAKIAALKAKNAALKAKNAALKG

4H906-AA = target: T29, 4H906-AA; conditions: mean of both orientations
T29 chain: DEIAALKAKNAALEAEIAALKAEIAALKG

4H2078-AA = target: T30, 4H2078-AA; conditions: mean of both orientations
T30 chain: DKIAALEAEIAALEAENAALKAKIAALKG

4H3627-AA = target: T31, 4H3627-AA; conditions: mean of both orientations
T31 chain: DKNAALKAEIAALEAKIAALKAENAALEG

4H3921-AA = target: T32, 4H3921-AA; conditions: mean of both orientations
T32 chain: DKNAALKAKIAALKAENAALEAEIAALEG

4H1513-AA = target: T33, 4H1513-AA; conditions: mean of both orientations
T33 chain: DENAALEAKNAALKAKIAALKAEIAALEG

4H2393-AA = target: T34, 4H2393-AA; conditions: mean of both orientations
T34 chain: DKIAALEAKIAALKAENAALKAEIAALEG

4H780-AA = target: T35, 4H780-AA; conditions: mean of both orientations
T35 chain: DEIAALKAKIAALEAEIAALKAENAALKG

4H3606-AA = target: T36, 4H3606-AA; conditions: mean of both orientations
T36 chain: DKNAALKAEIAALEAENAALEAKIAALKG

4H566-AA = target: T37, 4H566-AA; conditions: mean of both orientations
T37 chain: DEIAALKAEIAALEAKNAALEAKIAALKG

4H3343-AA = target: T38, 4H3343-AA; conditions: mean of both orientations
T38 chain: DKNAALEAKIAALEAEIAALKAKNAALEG

4H2165-AA = target: T39, 4H2165-AA; conditions: mean of both orientations
T39 chain: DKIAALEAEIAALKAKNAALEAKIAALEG

4H234-AA = target: T40, 4H234-AA; conditions: mean of both orientations
T40 chain: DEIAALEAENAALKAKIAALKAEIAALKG

4H2575-AA = target: T41, 4H2575-AA; conditions: mean of both orientations
T41 chain: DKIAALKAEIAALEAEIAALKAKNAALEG

4H3427-AA = target: T42, 4H3427-AA; conditions: mean of both orientations
T42 chain: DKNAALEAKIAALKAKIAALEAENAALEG

4H2642-AA = target: T43, 4H2642-AA; conditions: mean of both orientations
T43 chain: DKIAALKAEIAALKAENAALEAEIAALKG

4H1552-AA = target: T44, 4H1552-AA; conditions: mean of both orientations
T44 chain: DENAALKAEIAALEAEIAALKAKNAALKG

4H717-AA = target: T45, 4H717-AA; conditions: mean of both orientations
T45 chain: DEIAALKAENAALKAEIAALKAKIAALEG

4H429-AA = target: T46, 4H429-AA; conditions: mean of both orientations
T46 chain: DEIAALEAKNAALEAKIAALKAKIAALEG

4H2949-AA = target: T47, 4H2949-AA; conditions: mean of both orientations
T47 chain: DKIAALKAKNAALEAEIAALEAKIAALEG

4H2466-AA = target: T48, 4H2466-AA; conditions: mean of both orientations
T48 chain: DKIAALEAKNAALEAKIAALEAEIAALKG

Q8-AA = target: T49, Q8-AA; conditions: mean of both orientations
T49 chain: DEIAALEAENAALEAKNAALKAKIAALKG

4H2837-AA = target: T50, 4H2837-AA; conditions: mean of both orientations
T50 chain: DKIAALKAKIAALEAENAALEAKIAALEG

4H1867-AA = target: T51, 4H1867-AA; conditions: mean of both orientations
T51 chain: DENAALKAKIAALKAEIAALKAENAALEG

4H1401-AA = target: T52, 4H1401-AA; conditions: mean of both orientations
T52 chain: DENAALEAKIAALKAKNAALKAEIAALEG

interaction score (4H2277-AA): -1.27 | interaction score (4H3655-AA): 0.863 | interaction score (4H678-AA): -0.653 | interaction score (4H335-AA): 0.334 | interaction score (4H2190-AA): -1.16 | interaction score (4H993-AA): -0.427 | interaction score (4H3112-AA): 1.11 | interaction score (4H454-AA): 1.39 | interaction score (4H2354-AA): -1.74 | interaction score (Q7-AA): -1.38 | interaction score (4H1352-AA): 1.38 | interaction score (4H2883-AA): 0.183 | interaction score (4H2505-AA): -0.788 | interaction score (4H3718-AA): 0.714 | interaction score (4H1636-AA): -1.13 | interaction score (4H342-AA): 1.49 | interaction score (4H881-AA): -0.885 | interaction score (4H317-AA): -0.919 | interaction score (4H48-AA): -0.096 | interaction score (4H794-AA): -1.64 | interaction score (4H605-AA): -1.5 | interaction score (Q3-AA): -0.583 | interaction score (4H2617-AA): 0.197 | interaction score (4H2754-AA): -0.982 | interaction score (4H2151-AA): -0.65 | interaction score (4H2729-AA): 0.0997 | interaction score (4H3844-AA): 1.93 | interaction score (4H2944-AA): -0.752 | interaction score (4H906-AA): -1.39 | interaction score (4H2078-AA): -1.18 | interaction score (4H3627-AA): 2.33 | interaction score (4H3921-AA): -1.28 | interaction score (4H1513-AA): -0.469 | interaction score (4H2393-AA): -1.01 | interaction score (4H780-AA): -1.6 | interaction score (4H3606-AA): -0.743 | interaction score (4H566-AA): -1.51 | interaction score (4H3343-AA): -0.188 | interaction score (4H2165-AA): -1.51 | interaction score (4H234-AA): -1.3 | interaction score (4H2575-AA): 1.45 | interaction score (4H3427-AA): 0.842 | interaction score (4H2642-AA): -1.13 | interaction score (4H1552-AA): 1.47 | interaction score (4H717-AA): -1.46 | interaction score (4H429-AA): -0.813 | interaction score (4H2949-AA): -0.999 | interaction score (4H2466-AA): -1.34 | interaction score (Q8-AA): -1.22 | interaction score (4H2837-AA): -0.514 | interaction score (4H1867-AA): 0.645 | interaction score (4H1401-AA): -1.64
B1: 4H1352-AA (peptide)
chain: DENAALEAKIAALKAEIAALEAKNAALKG
